Consider six molecules from patent publication US20190161555A1.

In experiment [1] the target is human/mouse 5T4 chimera aa173-420 (human; mouse) (UniProt Q13641). The experiment can be described thus: flow cytometry, cells with 5T4 chimera; % positive cells over that of the best clone. A general note: In flow cytometry, cells or beads pass a laser one at a time.
The target of experiment [2] is Chimeric OX40 construct 1544 (human; mouse) (UniProt P47741). The experiment can be described thus: flow cytometry, 293-F cells transfected with the construct.
Chimeric OX40 construct 1544 (human; mouse), sequence (P43489 other isoform, or with tags, fused parts or gaps mutant, form in doubt): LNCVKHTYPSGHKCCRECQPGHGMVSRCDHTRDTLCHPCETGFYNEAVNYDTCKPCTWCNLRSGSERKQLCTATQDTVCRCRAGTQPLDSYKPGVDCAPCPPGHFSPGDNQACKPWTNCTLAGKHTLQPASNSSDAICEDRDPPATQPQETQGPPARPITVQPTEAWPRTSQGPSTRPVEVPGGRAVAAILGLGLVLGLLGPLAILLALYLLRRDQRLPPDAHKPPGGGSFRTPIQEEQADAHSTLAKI
For experiment [3], the target named is Chimeric OX40 construct 1545 (human; mouse) (UniProt P43489). The experiment is described as above.
Chimeric OX40 construct 1545 (human; mouse), sequence (P43489 other isoform, or with tags, fused parts or gaps mutant, form in doubt): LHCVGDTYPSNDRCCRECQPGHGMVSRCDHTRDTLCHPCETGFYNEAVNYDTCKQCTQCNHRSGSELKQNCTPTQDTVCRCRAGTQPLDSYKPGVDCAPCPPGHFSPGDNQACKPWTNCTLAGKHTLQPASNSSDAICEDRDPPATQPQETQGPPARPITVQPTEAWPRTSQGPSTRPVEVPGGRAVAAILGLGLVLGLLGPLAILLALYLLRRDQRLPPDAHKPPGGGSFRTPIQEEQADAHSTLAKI
The target in experiment [4] is Chimeric OX40 construct 1546 (human; mouse) (UniProt P43489). The experiment is described as above.
Chimeric OX40 construct 1546 (human; mouse), sequence (P43489 other isoform, or with tags, fused parts or gaps mutant, form in doubt): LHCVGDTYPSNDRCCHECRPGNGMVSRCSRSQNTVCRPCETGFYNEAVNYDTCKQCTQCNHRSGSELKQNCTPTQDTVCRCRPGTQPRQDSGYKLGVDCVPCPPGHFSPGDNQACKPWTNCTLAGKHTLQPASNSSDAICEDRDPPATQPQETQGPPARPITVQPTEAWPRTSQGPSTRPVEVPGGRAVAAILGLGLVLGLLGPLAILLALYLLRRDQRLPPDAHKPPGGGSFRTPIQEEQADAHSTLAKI
The target of experiment [5] is Chimeric OX40 construct 1547 (human; mouse) (UniProt P43489). The experiment is described as above.
Chimeric OX40 construct 1547 (human; mouse), sequence (P43489 other isoform, or with tags, fused parts or gaps mutant, form in doubt): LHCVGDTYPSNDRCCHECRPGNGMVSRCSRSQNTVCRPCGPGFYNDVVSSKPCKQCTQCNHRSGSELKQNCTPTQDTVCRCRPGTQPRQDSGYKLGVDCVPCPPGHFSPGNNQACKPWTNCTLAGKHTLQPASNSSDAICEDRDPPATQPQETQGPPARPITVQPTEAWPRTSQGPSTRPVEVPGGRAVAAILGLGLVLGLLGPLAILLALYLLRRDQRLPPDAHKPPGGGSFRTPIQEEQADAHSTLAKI
Experiment [6] concerns the target Chimeric OX40 construct 1548 (human; mouse) (UniProt P43489). The experiment is described as above.
The target in experiment [7] is Chimeric OX40 construct 1549 (human; mouse) (UniProt P47741). The description is as above.

Chimeric OX40 construct 1548 (human; mouse), sequence (P43489 other isoform, or with tags, fused parts or gaps mutant, form in doubt): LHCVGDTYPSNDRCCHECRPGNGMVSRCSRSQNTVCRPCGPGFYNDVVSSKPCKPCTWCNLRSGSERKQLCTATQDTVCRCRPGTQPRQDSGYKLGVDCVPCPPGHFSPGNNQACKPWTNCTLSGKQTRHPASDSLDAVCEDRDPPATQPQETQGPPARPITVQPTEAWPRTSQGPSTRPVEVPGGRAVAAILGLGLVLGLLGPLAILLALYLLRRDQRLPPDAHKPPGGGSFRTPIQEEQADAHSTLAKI
human/mouse 5T4 chimera aa173-420 (human; mouse), sequence (Q13641 other isoform, or with tags, fused parts or gaps mutant limits assumed, form in doubt): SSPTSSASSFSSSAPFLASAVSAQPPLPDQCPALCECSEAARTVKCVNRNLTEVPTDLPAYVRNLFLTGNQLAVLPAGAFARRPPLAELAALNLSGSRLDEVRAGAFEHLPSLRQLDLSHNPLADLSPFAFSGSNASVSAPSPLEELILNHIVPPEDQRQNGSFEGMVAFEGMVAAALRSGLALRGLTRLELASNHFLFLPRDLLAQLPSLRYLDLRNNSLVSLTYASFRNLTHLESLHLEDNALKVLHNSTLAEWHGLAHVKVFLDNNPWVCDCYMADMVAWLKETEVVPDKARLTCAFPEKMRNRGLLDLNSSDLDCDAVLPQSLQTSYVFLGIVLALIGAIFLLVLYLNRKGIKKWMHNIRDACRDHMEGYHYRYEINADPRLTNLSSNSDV

B1: 1206/1207 (antibody, V domains shown)
VH: EVQLLESGGGLVQPGGSLRLSCAASGFTFSGSSMSWVRQAPGKGLEWVSSIYYSGSGTYYADSVKGRFTISRDNSKNTLYLQMNSLRAEDTAVYYCARYGRNVHPYNLDYWGQGTLVTVSS
VL: DIQMTQSPSSLSASVGDRVTITCRASQSISSYLNWYQQKPGKAPKLLIYAASSLQSGVPSRFSGSGSGTDFTLTISSLQPEDFATYYCQQGYYYLPTFGQGTKLEIK
In turn, B1 showed a normalized % positive cells in experiment [1] of 0.3.

B2: 1514/1515 (antibody, V domains shown)
VH: EVQLLESGGGLVQPGGSLRLSCAASGFTFGYYYMSWVRQAPGKGLEWVSGISSYGSYTYYADSVKGRFTISRDNSKNTLYLQMNSLRAEDTAVYYCARSGYSNWANSFDYWGQGTLVTVSS
VL: DIQMTQSPSSLSASVGDRVTITCRASQSISSYLNWYQQKPGKAPKLLIYAASSLQSGVPSRFSGSGSGTDFTLTISSLQPEDFATYYCQQGDYTLFTFGQGTKLEIK
With B2, the relative MFI (fold over isotype control) worked out at 11.6 in experiment [2]; 1.2 in experiment [3]; 0.9 in experiment [4]; 1.1 in experiment [5]; 17.2 in experiment [6]; 10.6 in experiment [7].

B3: 1212/1213 (antibody, IgG1, V domains shown)
VH: EVQLLESGGGLVQPGGSLRLSCAASGFTFSSYAMSWVRQAPGKGLEWVSYISSYGGYTSYADSVKGRFTISRDNSKNTLYLQMNSLRAEDTAVYYCARYHSGVLDYWGQGTLVTVSS
VL: DIQMTQSPSSLSASVGDRVTITCRASQSISSYLNWYQQKPGKAPKLLIYAASSLQSGVPSRFSGSGSGTDFTLTISSLQPEDFATYYCQQYYYHYLLTFGQGTKLEIK
The molecule B3 displayed a normalized % positive cells in experiment [1] of -0.01.

B4: 1166/1167 (antibody, V domains shown)
VH: EVQLLESGGGLVQPGGSLRLSCAASGFTFGGYYMSWVRQAPGKGLEWVSAISGSGGSTYYADSVKGRFTISRDNSKNTLYLQMNSLRAEDTAVYYCARYDYASMDYWGQGTLVTVSS
VL: DIQMTQSPSSLSASVGDRVTITCRASQSISSYLNWYQQKPGKAPKLLIYAASSLQSGVPSRFSGSGSGTDFTLTISSLQPEDFATYYCQQYYWYGLSTFGQGTKLEIK
In the case of B4, the relative MFI (fold over isotype control) in experiment [2] is 14.2; in experiment [3], 1; in experiment [4], 0.8; in experiment [5] it was 15.2; in experiment [6] it was 15.8; in experiment [7], 11.3.

B5: 1524/1525 (antibody, V domains shown)
VH: EVQLLESGGGLVQPGGSLRLSCAASGFTFGSYYMGWVRQAPGKGLEWVSSIGSYYGYTYYADSVKGRFTISRDNSKNTLYLQMNSLRAEDTAVYYCARHDYGALDYWGQGTLVTVSS
VL: DIQMTQSPSSLSASVGDRVTITCRASQSISSYLNWYQQKPGKAPKLLIYAASSLQSGVPSRFSGSGSGTDFTLTISSLQPEDFATYYCQQYGPSGLFTFGQGTKLEIK
Consider B5, for which the relative MFI (fold over isotype control) in experiment [2] amounted to 1.5; in experiment [3], 0.9; in experiment [4], 0.9; in experiment [5] it was 1; in experiment [6], 15.4; in experiment [7], 11.2.

B6: 1526/1527 (antibody, V domains shown)
VH: EVQLLESGGGLVQPGGSLRLSCAASGFTFSGYSMYWVRQAPGKGLEWVSGIGYSGYGTYYADSVKGRFTISRDNSKNTLYLQMNSLRAEDTAVYYCARYYFHDYAAYSLDYWGQGTLVTVSS
VL: DIQMTQSPSSLSASVGDRVTITCRASQSISSYLNWYQQKPGKAPKLLIYAASSLQSGVPSRFSGSGSGTDFTLTISSLQPEDFATYYCQQYGSDSLLTFGQGTKLEIK
On to B6, for which the relative MFI (fold over isotype control) is 1.1 in experiment [2]; 1.3 in experiment [3]; 0.9 in experiment [4]; 1 in experiment [5]; 12.7 in experiment [6]; 8.5 in experiment [7].
